Broadly, the EC50 is the concentration needed to bring the measured effect to its halfway point.

The source of these data is patent publication US20250368734A1 (ANTENGENE BIOLOGICS, published 2025).

The target in assay [1] is T1, human GPRC5D (human, UniProt Q9NZD1 1-345).
T1 construct: whole, on cells; also called hGPRC5D; G-protein coupled receptor family C group 5 member D
In words: FACS, CHOS-hGPRC5D cells. Background: Flow cytometry measures light scatter and fluorescence of single cells or particles in a stream.

The target in the next assay is T2, mouse GPRC5D (mouse, UniProt Q9JIL6 1-344).
T2 construct: whole, on cells; HEK293T-mGPRC5D cells; also called mGPRC5D; murine GPRC5D
T2 sequence (looked up): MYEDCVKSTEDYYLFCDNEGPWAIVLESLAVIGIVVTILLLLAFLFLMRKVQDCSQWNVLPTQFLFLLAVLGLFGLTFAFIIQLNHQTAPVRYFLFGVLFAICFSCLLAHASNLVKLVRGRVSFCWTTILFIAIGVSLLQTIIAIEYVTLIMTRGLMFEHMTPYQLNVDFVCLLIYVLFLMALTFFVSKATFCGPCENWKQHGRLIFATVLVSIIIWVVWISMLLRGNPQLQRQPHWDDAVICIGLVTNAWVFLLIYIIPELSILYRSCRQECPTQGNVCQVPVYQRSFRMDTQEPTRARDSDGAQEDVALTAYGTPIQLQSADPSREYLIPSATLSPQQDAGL
As to the kind of experiment: FACS, HEK293T-mGPRC5D cells.

The target in assay [2] is T3, cynomolgus monkey GPRC5D (cynomolgus monkey).
T3 construct: whole, on cells; HEK293T-cynoGPRC5D cells; also called cynoGPRC5D
As to the kind of experiment: FACS, HEK293T-cynoGPRC5D cells.

The target in assay [3] is T1, human GPRC5D. As to the kind of experiment: FACS, OPM-2 cells. The source says: (§1) The subcloning plates were screened by Mirrorball assay and the subclones with good binding ability were expanded to 24-wells for confirmation tests. The specificity and cross-reactivity of these subclones were confirmed with FACS analysis. Briefly, parental HEK293T, HEK293T cells stably over-expressing human GPRC5D protein (i.e., HEK293T-hGPRC5D), HEK293T cells stably over-expressing cynomolgus monkey GPRC5D protein (i.e., HEK293T-cynoGPRC5D), HEK293T cells stably over-expressing mouse GPRC5D protein (i.e., HEK293T-mGPRC5D), and OPM2 cells were incubated with antibodies produced by each subclone, respectively. Fluorescent dye-conjugated secondary antibody was used to detect the binding of the primary antibody with the cells. Median fluorescence intensity (MFI) was measured by FACS analysis,
(§2) As a result, 21 antibodies were discovered with unique sequences showing positive binding with HEK293T-hGPRC5D and OPM2 cells. Among which, some clones could also bind with HEK293T-cynoGPRC5D and/or HEK293T-mGPRC5D. […] ATG596 was a positive human IgG1 control antibody which comprises a VH region having an amino acid sequence as set forth in SEQ ID NO: 199, and a VL region having an amino acid sequence as set forth in SEQ ID NO: 200.

Assay [4] has as its target T1, human GPRC5D. As to the kind of experiment: FACS, HEK293T-hGPRC5D cells.
Description: as §1, §2

Assay [5] deals with T3, cynomolgus monkey GPRC5D. In words: FACS, HEK293T-cynoGPRC5D cells.
Description: as §1, §2
This is another data set of the same source.

T1 sequence (Q9NZD1 whole entry): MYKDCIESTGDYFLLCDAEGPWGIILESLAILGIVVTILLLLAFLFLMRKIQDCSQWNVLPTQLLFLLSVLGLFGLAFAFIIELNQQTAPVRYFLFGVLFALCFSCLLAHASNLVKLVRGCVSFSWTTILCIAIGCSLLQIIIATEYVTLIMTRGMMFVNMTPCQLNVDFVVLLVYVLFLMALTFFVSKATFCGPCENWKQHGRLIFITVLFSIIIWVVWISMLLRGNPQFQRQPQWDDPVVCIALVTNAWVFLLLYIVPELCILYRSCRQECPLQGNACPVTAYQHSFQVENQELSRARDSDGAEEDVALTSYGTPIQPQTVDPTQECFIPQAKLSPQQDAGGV

B1: ch28H9C12 (antibody, V domains shown)
VH: EVQLVESGGGLVKPGGSLKLSCAASGFTFSDYGMHWVRQAPEKGLEWVAYISSGSSTIYYADTVKGRFTISRDNAKNTLFLQMTSLRSEDTAIYYCVRRPWYFDVWGTGTTVTVSS
VL: DVLMTQTPLSLPVSLGDQASISCRSSQSIVHSNGNTYLQWYLQKPGQSPKLLIYKVSNRFSGVPDRFSGSGSGTDFTLKISRLEAEDLGVYYCFQGSHVPFTFGSGTKLEIK
As for B1, the values for the EC50 with human GPRC5D [1], with mouse GPRC5D and with cynomolgus monkey GPRC5D [2] were 2.83 nM, 110 nM and 14.8 nM, respectively. In addition, the Top in the assay with human GPRC5D [1] was 3960; with mouse GPRC5D, 26500; in the assay with cynomolgus monkey GPRC5D [2], 65900.

B2: ch82A1C10 (antibody, V domains shown)
VH: QVQLKESGPGLVAPSQSLSITCTVSGFSLTNYAVTWVRQPPGKGLEWLGVIWGDGSTYYHSALVSRLSITKDNSRTQVLLKLNSLQTDDTARYYCAKGGYSPFAYWGQGTLVTVSA
VL: DVVMTQTPLSLPVSLGDQASISCRSSQSLVHSNGNTYLHWYLQKPGQSPKLLIFKVSNRFSGVPDRFSGSGSGTDFTLKISRVEAEDLGVYFCSQNTHVPFTFGSGTKLEIK
In the assay with human GPRC5D [1], B2 registered an EC50 of 2.76 nM and a Top of 2680.

B3: 83A9B8 (antibody, V domains shown)
VH: EVQLQQSGPELVKPGASVKMSCKASGYTFSNYVIHWVKQKPGQGLEWIGYFNPYNDGSKYNEKFKGKATLTSDKSSSTAYMELSSLTSEDSAVYYCARGGVRRYFDVWGAGTTVTVSS
VL: DIQMTQSPSSLSASLGERVSLTCRASQDIGDNLNWLQQEPDGTIKRLIYATFSLDSGVPKRFSGSRSGSVYSLTISRLESEDFVDYFCLHYASFPYTFGGGTKLEIK
notes: Mouse monoclonal antibody from hybridoma subclone
Consider B3, for which the results for the “% Positive” value with human GPRC5D [3], with human GPRC5D [4] and with cynomolgus monkey GPRC5D [5] were 98.3%, 94.1% and 55.7%, respectively. In addition, the MFI with human GPRC5D [3] came out at 824; with human GPRC5D [4], 4930; in the assay with cynomolgus monkey GPRC5D [5], 278.

B4: 116F1G6 (antibody, V domains shown)
VH: EVQLQHSGPELVKPGASVKMSCKASGYTFTTYVMHWVKQKPGQGLEWIGYINPYNDGTKYNEKFKGKATLTSDKSSSTAYMELSSLTSEDSAVYYCARGGVRRYFDVWGAGTTVTVSS
VL: DIQMTQSPSSLSASLGERVSLTCRASQDIGSNLNWLQQEPNGTIKRLIYATFTLDSGVPKRFSGSRSGSDYSLTISSLESEDFVDYYCLQYASFPYTFGGGTKLEIK
notes: as for B3
For the molecule B4, the “% Positive” value with human GPRC5D [3] turned out to be 98.4%; with human GPRC5D [4], 96.2%; with cynomolgus monkey GPRC5D [5], 41.4%. Besides, the MFI with human GPRC5D [3] was found to be 1040; with human GPRC5D [4], 42800; with cynomolgus monkey GPRC5D [5] it was 82.6.

B5: ch83A9B8 (antibody, V domains shown)
VH: EVQLQQSGPELVKPGASVKMSCKASGYTFSNYVIHWVKQKPGQGLEWIGYFNPYNDGSKYNEKFKGKATLTSDKSSSTAYMELSSLTSEDSAVYYCARGGVRRYFDVWGAGTTVTVSS
VL: DIQMTQSPSSLSASLGERVSLTCRASQDIGDNLNWLQQEPDGTIKRLIYATFSLDSGVPKRFSGSRSGSVYSLTISRLESEDFVDYFCLHYASFPYTFGGGTKLEIK
For the molecule B5, in the assay with human GPRC5D [1], the EC50 was 0.4 nM and the Top amounted to 1840.

B6: ch116F1G6 (antibody, V domains shown)
VH: EVQLQHSGPELVKPGASVKMSCKASGYTFTTYVMHWVKQKPGQGLEWIGYINPYNDGTKYNEKFKGKATLTSDKSSSTAYMELSSLTSEDSAVYYCARGGVRRYFDVWGAGTTVTVSS
VL: DIQMTQSPSSLSASLGERVSLTCRASQDIGSNLNWLQQEPNGTIKRLIYATFTLDSGVPKRFSGSRSGSDYSLTISSLESEDFVDYYCLQYASFPYTFGGGTKLEIK
In the assay with human GPRC5D [1], B6 showed an EC50 of 0.863 nM and a Top of 1170.

B7: ch20C4E1 (antibody, V domains shown)
VH: EVRLVESGGALVRPGGSLKLSCAASGFTFSDYGMHWVRQAPEKGLEWIAFISSVSFTIYYADTVKGRFTISRDNAKNTLFLQMTSLRSEDTALYYCTRLGPHWYFDVWGTGTTVTVSS
VL: DVVLTQTPLSLPVSLGDQASISCRSSQSLVYSNGNTYLHWFLQKPGQSPQLLIYKVSNRFSGVPDRFSGSGSGTDFTLKISRVEAEDLGVYFCSQSTPVPTFGGGTKLEIK
Consider B7, for which the EC50 worked out at 2.83 nM with human GPRC5D [1], 3940 nM with mouse GPRC5D and 11.5 nM in the assay with cynomolgus monkey GPRC5D [2]. The Top in the assay with human GPRC5D [1] amounted to 4110; in the assay with mouse GPRC5D, 5.06e+06; with cynomolgus monkey GPRC5D [2], 45800.

B8: ch36A3G8 (antibody, V domains shown)
VH: QVQLQQSGAELARPGASVKMSCKASGYTFTTYTMHWIKQRPGQDLEWIGFINPSSGYTKYNQNFKDKATLTADKSSTTAYMQLNSLTSEDSAVYYCASPYGNIYFDVWGTGTTVTVSS
VL: DIVMTQSQKFMSTAVGDRVSITCKASQNVGTAVAWYQQKPGQSPKLLIYSASNRYTGVPDRFTGSGSGTDFTLTISNMQSEDLADYFCQQYSSYPLTFGAGTKLELK
As for B8, in the assay with human GPRC5D [1], the EC50 amounted to 2.64 nM and the Top came to 2780.

B9: 116G1G4 (antibody, V domains shown)
VH: EVQLQQSGPELVKPGASVKMSCKASGYTFTYYIMHWVKQEPGQGLQWIGYINPYNDGAYYSARFKGKATLTSDKSSSTAYMDLTSLTSEDSAVYYCARGGVRRYFDVWGAGTTVTVSS
VL: DIQMTQSPSSLSASLGERVILTCRASQDIGSNLIWLQQKPDGTIKRLIYATFNLDSGVSKRFSGSRSGSDYSLTISSLDSEDFVDYYCLQYASSPYTFGGGTKLEIK
notes: as for B3
In the case of B9, the figures for the “% Positive” value with human GPRC5D [3], in the assay with human GPRC5D [4] and in the assay with cynomolgus monkey GPRC5D [5] were 97.4%, 94.4% and 59.8%, respectively. Further, the MFI is 706 with human GPRC5D [3], 6050 with human GPRC5D [4] and 344 with cynomolgus monkey GPRC5D [5].

B10: ch116G1G4 (antibody, V domains shown)
VH: EVQLQQSGPELVKPGASVKMSCKASGYTFTYYIMHWVKQEPGQGLQWIGYINPYNDGAYYSARFKGKATLTSDKSSSTAYMDLTSLTSEDSAVYYCARGGVRRYFDVWGAGTTVTVSS
VL: DIQMTQSPSSLSASLGERVILTCRASQDIGSNLIWLQQKPDGTIKRLIYATFNLDSGVSKRFSGSRSGSDYSLTISSLDSEDFVDYYCLQYASSPYTFGGGTKLEIK
In the assay with human GPRC5D [1], B10 displayed an EC50 of 0.686 nM and a Top of 2240.

B11: ch12G12C2 (antibody, V domains shown)
VH: QIQLVQSGPELKMPGETVKISCKASGYTFTTYGLSWVKQAPGKGLKWMGWINTFSGVPIYADDFKGRFAFSLETSASTAYLQINNLKNEDTATYFCARWGIRQRGDYWGQGATLTVSS
VL: QIVLTQSPAIMSASPGEKVTMTCSASSSVSYLHWYQQKSGTSPKRWIYDTSKLASGVPVRFSGSGSETSYSLTISSMEAEDAATYYCQQWTSNPPTFGGGTKLEIK
With B11, the figures for the EC50 with human GPRC5D [1], in the assay with mouse GPRC5D and with cynomolgus monkey GPRC5D [2] were 4.06 nM, 995 nM and 5.94 nM, respectively. Besides, the results for the Top in the assay with human GPRC5D [1], with mouse GPRC5D and with cynomolgus monkey GPRC5D [2] were 3120, 1.48e+06 and 28200, respectively.

B12: 119E4B4 (antibody, V domains shown)
VH: EVQLQQSGAELVKPGASVKLSCTASGFNIKDTYMHWVKQRPEQGLEWIGRIDPANGNTKYDPKFQGKATITADTSSNTAYLQLSSLTSEDTAVYYCARDYGNYEDYAMDYWGQGTSVTVSS
VL: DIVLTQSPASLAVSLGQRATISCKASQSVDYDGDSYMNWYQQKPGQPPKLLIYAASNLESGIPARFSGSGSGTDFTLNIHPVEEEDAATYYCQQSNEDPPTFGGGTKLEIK
notes: as for B3
On to B12, for which the “% Positive” value with human GPRC5D [3] turned out to be 98.6%; with human GPRC5D [4], 88.2%; with cynomolgus monkey GPRC5D [5], 69.6%. The results for the MFI with human GPRC5D [3], with human GPRC5D [4] and with cynomolgus monkey GPRC5D [5] were 867, 3240 and 709, respectively.

B13: ch15D6G2 (antibody, V domains shown)
VH: EVQLVESGGDLVKPGGYLRLSCAASGFTFSSHGMSWVRQTPDKRLEWVATISSGGRNTYYPDSVKGRFTISRDNAKNILYLQMSSLKSEDTAMFYCTRHSGDAMDYWGQGTSVTVSS
VL: DILLTQSPAILSVSPGERVSFSCRASQSIGTNIHWYQQRTNGSPRLLIKYASESISGIPSRFSGSGSGTDFTLSINSVESEDIADYYCQQSKSWPTFGGGTKLEIK
For B13, the EC50 was found to be 1.27 nM with human GPRC5D [1], 592 nM with mouse GPRC5D and 19.3 nM in the assay with cynomolgus monkey GPRC5D [2]. Besides, the results for the Top with human GPRC5D [1], with mouse GPRC5D and with cynomolgus monkey GPRC5D [2] were 4080, 648000 and 123000, respectively.
